# From US20210292393A1 (published 2021)
# Where a chain is given by its changes, count along the chain named.
# B1: antibody 316 (antibody, V domains shown)
# VH: QVHLVESGGGVVQPGRSLRLSCAASGFTLTAYAMHWVRQAPGKRLEWVALISYDGSVKKYADSVKGRITVSGDTSTNTLHLQMNSLRADDTAVYYCVRGGVSGPNSFDLWGQGTMVTVSS
# VL: DVVMTQSPLSLPVTLGQPASMSCRSSQSLEYSDGNTYVNWFHQRPGQSPRRLIYKVSYRDSGVPDRFSGSGSGTDFTLQISRVEAEDVGIYYCMQGTHWPVTFGQGTKVEIK
# B2: antibody 317 (antibody, V domains shown)
# VH: QVQLVQSGAEVKKPGASVKVSCKVSGYTLTELSMHWVRQAPGKGLEWMGGFDPEDGETIYAQKFQGRVTMTEDTSTDTAYMELSSLRSEDTAVYYCASSPAAAGTSQYYYYYGMDVWGQGTTVTVSS
# VL: not shown
# B3: antibody 320 (antibody, V domains shown)
# VH: QVQLVQSGAEVKKPGASVKVSCKASGYTFTSYGISWVRQAPGQGLEWMGWISAYNGNTNYAQKLQGRVTMTTDTSTRTAYMELRSLRSDDTAVYYCARVGCYYDSSGYSCAENFQHWGQGTLVTVSS
# VL: QSVLTQPPSVSGAPGQRVTISCTGSSSNIGAGYDVHWYQQLPGTAPKLLIYGNSNRPSGVPDRFSGSKSGTSASLAITGLQAEDEADYYCQSYDSSLSALFGGGTKLTVL
# B4: antibody 323 (antibody, V domains shown)
# VH: QVQLVQSGAEVKKPGASVKVSCKVSGYTLTELSMHWVRQAPGKGLEWMGGFDPEDGETIYAQKFQGRVTMTEDTSTDTAYMELSSLRSEDTAVYYCATSTIFAPGGWFDPWGQGTLVTVSS
# VL: QSALTQPASVSGSPGQSITISCTGTSSDVGSYNLVSWYQQHPGKAPKLMIYEVSKRPSGVSNRFSGSKSGNTASLTISGLQAEDEADYYCCSYAGSTHYVFGTGTKVTVL
# B5: antibody 326 (antibody, V domains shown)
# VH: QITLKESGPTLVKPTQTLTLTCTFSGFSLNTSGVGVGWIRQPPGKALEWLSLIFWNDDKRYSPSLRSRLTITKDTSKNQVVLTMTNMDPVDTATYFCAHRNSGWSLKFDSWGQGSLVTVSA
# VL: DIQMTQSPSSVSASVGDRVTITCRARQGISSWLVWYQQKPGKAPKLLIFGASSLQSGVPSRFNASGTGTEFTLTISSLQPEDFATYYCQQADSFPITFGQGTRLEIK
# B6: antibody 327 (antibody, V domains shown)
# VH: QVQLVESGGGVVQPGRSLRLSCAASGFNLSNYAMHWVRQASGKGLEWVSLISYDGSIKYYTDSVKGRFTVSGDNSKNTLFLQMNSLRPDDSALYYCVRGGVSGPNSFDMWGQGTTVTVSS
# VL: B1 VL with M21I, E30V, H42Q, K55Q, Y58I, D60A, T77A, Q79K
# B7: antibody 329 (antibody, V domains shown)
# VH: EVQLVESGGGLVQPGGSLRLSCAASGFTFSSYWMHWVRQAPGKGLVWVSRINSDGSSTSYADSVKGRFTISRDNAKNTLYLQMNSLRAEDTAVYYCAREGIVATITLDYWGQGTLVTVSS
# VL: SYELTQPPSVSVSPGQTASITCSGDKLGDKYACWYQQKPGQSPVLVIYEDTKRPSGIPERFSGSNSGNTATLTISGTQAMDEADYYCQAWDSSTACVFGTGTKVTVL
# B8: antibody 331 (antibody, V domains shown)
# V domain 1: QITLKESGPTLVKPTETLTLTCSFSGFSLTKTGEAAGWIRQAPGRALEWVTVIFWDDDKRYSPSLQNRISVTKDTSKNQVVLRMTNVARFDTGTYFCWAMGGPGKEYFGQGTLVAVSS
# V domain 2: QSVLTQPPSVSGAPGQRVTISCTGTSSSIGPYSDVHWYQHVSGKAPRLLIFGNSNRPSGVPDRFSGSKSGTSASLVIAGLQAEDEADYYCQSYDSSLGEIYVFGTGTTVTVL
# B9: antibody 339 (antibody, V domains shown)
# V domain 1: B8 V domain 1 with K31R, N67S, I69L, S70T, R83T, G93A, L113Q
# V domain 2: B8 V domain 2
# B10: antibody 340 (antibody, V domains shown)
# VH: QVQLVQSGAEVKKPGASVKVSCKASGYTFTSYDINWVRQATGQGLEWMGWMNPNSGNTGYAQKFQGRVTMTRNTSISTAYMELSSLRSEDTAVYYCARGRYCTGGVCWGDWYFDLWGRGTLVTVSS
# VL: QSVLTQPPSVSGAPGQRVTISCTGSSSNIGAGYDVHWYQQLPGTAPKFLIYGNSNRPSGVPDRFSGSKSGTSASLAITGLQAEDEADYYCQSYDSSLSGPVFGGGTKLTVL
# B11: antibody 344 (antibody, V domains shown)
# VH: QVQLVESGGGVVQPGRSLRLSCAASGFTFSSYAMHWVRQAPGKGLEWMAVISYDGSNKYYADSVKGRFTISRDNSKNTLYLQMNSLRAEDTAVYFCAKGYSGSYYEPFDYWGQGTLVTVSS
# VL: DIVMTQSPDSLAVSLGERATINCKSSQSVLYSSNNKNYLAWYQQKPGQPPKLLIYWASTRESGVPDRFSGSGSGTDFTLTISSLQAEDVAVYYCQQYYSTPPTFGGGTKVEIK
# B12: antibody 345 (antibody, V domains shown)
# VH: QVQLQESGPGLVKPSQTLSLTCTVSGGSISSGDYYWSWIRQPPGKGLEWIGYIYYSGSTYYNPSLKSRVTISVDTSKNQFSLKLSSVTAADTAVYYCARVGMVDNWNFEGNWFDPWGQGTLVTVSS
# VL: QSALTQPRSVSGSPGQSVTISCTGTSSDVGGYNYVSWYQQHPGKAPKLMIYDVSKRPSGVPDRFSGSKSGNTASLTISGLQAEDEADYYCCSYAGSVVFGGGTKLTVL
# B13: antibody 348 (antibody, V domains shown)
# VH: QVQLVQSGSELKKPGASVKVSCKASGYTFTSYAMNWVRQAPGQGLEWMGWINTNTGNPTYAQGFTGRFVFSLDTSVSTAYLQISSLKAEDTAVYYCARDHELPNTSSWFGHFEYWGQGTLVTVSS
# VL: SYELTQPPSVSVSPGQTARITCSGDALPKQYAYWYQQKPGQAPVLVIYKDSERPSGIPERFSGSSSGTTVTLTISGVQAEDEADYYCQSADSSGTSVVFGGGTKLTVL
# B14: antibody 363 (antibody, V domains shown)
# VH: EVQLLESGGGLVQPGGSLRLSCAASGFTFSTYAMSWVRQAPGKGLEWVSAISGSGGSTYYADSVKGRFTISRDNSKNTLYLQMNSLRAEDTAVYYCASGYSPDYWGQGTLVTVSS
# VL: not shown
# B15: antibody 507 (antibody, V domains shown)
# VH: QVQLQESGPGLVKPSGTLSLTCAVSGGSISSSNWWSWVRQPPGKGLEWIGEIYHSGNTNYNPSLKSRVTISVDKSKNQFSLKLSSVTAADTAVYYCARREWLRLFDYWGQGTLVTVSS
# VL: B4 VL with T97S, H98T
# B16: antibody 510 (antibody, V domains shown)
# VH: QVQLQESGPGLVKPSQTLSLTCTVSGGSISSGSYYWSWIRQPAGKGLEWIGRIYTSGSTNYNPSLKSRVTISVDTSKNQFSLKLSSVTAADTAVYYCAREGQWLYRFDYWGQGTLVTVSS
# VL: B4 VL with S31N, N33D, M49V, E52G, S54T, G95T, S96G, T97D, H98T, Y99S
# B17: antibody 514 (antibody, V domains shown)
# VH: EVQLVQSGAEVKKPGATVKISCKVSGYTFTDYYMHWVQQAPGKGLEWMGLVDPEDGETIYAEKFQGRVTITADTSTDTAYMELSSLRSEDTAVYYCATDCKYDILTGHYSAGYYYYGMDVWGQGTTVTVSS
# VL: DIQMTQSPSSLSASVGDRVTITCRASQGISNYLAWFQQKPGKAPKSLIYAASSLQSGVPSKFSGSGSGTDFTLTISSLQPEDFATYYCQQYNSYPFTFGGGTKVEIK
# B18: antibody 516 (antibody, V domains shown)
# VH: QVELQQWGAGLLKPSETLSLTCAVYGGSFSGYYWSWIRQPPGKGLEWIGEINHSGSTNYNPSLKSRVTISIDTSKNQFSLKLSSVTAADTAVYYCARGTTVTTFFAPHWYFDLWGRGTLVTVSS
# VL: QSALTQPASVSGSPGQSITISCTGTSSDVGGYNYVSWYQQHPGKAPKLMIYDVSNRPSGVSNRFSGSKSGNTASLTISGLQAEDEADYYCSSYTSSSTPYVFGTGTKVTVL
# B19: antibody 522 (antibody, V domains shown)
# VH: EVQLVESGGGLVQPGGSLRLSCAASGFNFSSYSMNWVRQAPGKGLEWVSYISSSSSTIYYADSVKGRFTISRDNAKNSLYLQMNSLRDEDTAVYYCARGPEWDIVVVQAENWFDPWGQGTLVTVSS
# VL: SYELTQPPSVSVSPGQTARITCSGDALPKQYVYWYQQKPGQAPVLVIYKDSERPSGIPERFSGSSSGTTVTLTISGVQAEDEADYYCQSADSSGTYRGVFGGGTKLTVL
# B20: antibody 523 (antibody, V domains shown)
# VH: EVQLVESGGVSVQPGGSLRLSCAASGFSFNTYDMHWVRQGTGKGLEWVSGIGTAGDTYYSDSVKGRCTISRDNAKNSLHLLVKSVRAADTAVYYCARGVGGIIDYWGQGTLVTVSS
# VL: NFVLSQPHSVSESPGKTVTISCTGNSGSIATKYVQWFQQRPGSAPTTVIYEDNQRPSGVPDRFSGSSDSSSNSASLTISGLKTEDEAHYYCQSYHNRRWVFGGGTKLTVL
# B21: antibody 533 (antibody, V domains shown)
# VH: GVQLVESGGVVVQPGGSLRLSCAASGFSFDDYTMHWVRQAPGKGLEWVSLVSWDGGTTYYTDSVKGRFTISRDNSKNSLYLQMNSLRTEDTALYFCAKDSGRIVPAATFDYWGQGTLVTVSS
# VL: B17 VL with P8S, G28D, N92Y, S93T, F96L
# B22: antibody 537 (antibody, V domains shown)
# VH: QVQLQQWGAGLLKPSETLSLTCAVYGGSFSGYYWSWIRQPPGKGLEWIGEINHSGSTNYNPSLKSRVTISVDTSKNQFSLKLSSVTAADTAVYYCARGLYYDMGGGFDYWGQGTLVTVSS
# VL: not shown
# B23: antibody 541 (antibody, V domains shown)
# VH: QVQLVQSGAEVKKPGASVKVSCKASGYTFTSYYVHWVRQAPGQSLEWMGVISPSTGSTTYAQNFQGRVTMTRDTSTTTVYMELSSLRSEDTAVYYCARDDYYDSTRYFDLWGRGTLVTVSS
# VL: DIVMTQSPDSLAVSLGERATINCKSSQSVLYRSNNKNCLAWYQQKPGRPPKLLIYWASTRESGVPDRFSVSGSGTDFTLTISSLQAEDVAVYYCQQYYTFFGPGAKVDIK
# B24: antibody 543 (antibody, V domains shown)
# VH: EVQLVESGGGLVQPGRSLRLSCAASGFTFHDYAMHWVRQAPGKGLEWVSGISWNSGSIGYADSVKGRFTISRDNAKNSLYLQMNSLRAEDTALYYCAKDTFGSSSWYRGDSYYYYGMDVWGQGTTVTVSS
# VL: QSALTQPASVSGSPGQSITISCTGTSSDVGGYNYVSWYQQHPGKAPKLMIYEVSNRPSGVSNRFSGSKSGNTASLTISGLQAEDEADYYCSSYTSSSTQRYVVFGGGTKLTVL
# Target: SARS-CoV-2 full length spike protein (wild type) (SARS-CoV-2, UniProt P0DTC2 14-1208)
row,Binder,median fluorescence intensity fold over isotype
1,B1,442 fold over isotype control
2,B2,890 fold over isotype control
3,B3,1200 fold over isotype control
4,B4,994 fold over isotype control
5,B5,193 fold over isotype control
6,B6,413 fold over isotype control
7,B7,497 fold over isotype control
8,B8,850 fold over isotype control
9,B9,874 fold over isotype control
10,B10,547 fold over isotype control
11,B11,404 fold over isotype control
12,B12,562 fold over isotype control
13,B13,869 fold over isotype control
14,B14,1030 fold over isotype control

# Target: SARS-CoV spike protein (full-length trimeric, on beads) (SARS-CoV, UniProt P59594 14-1190)
row,Binder,"bead binding signal, fold over isotype control"
1,B15,1.07 fold over isotype
2,B16,1.03 fold over isotype
3,B17,1.15 fold over isotype
4,B18,1.03 fold over isotype
5,B19,1.21 fold over isotype
6,B20,1.11 fold over isotype
7,B21,1.23 fold over isotype
8,B22,1.04 fold over isotype
9,B23,1.2 fold over isotype
10,B24,1.03 fold over isotype
